{
  "source": "patent US20070218075",
  "proteins": {"B1": {"name": "Factor XIIIa (Factor XIII, Haematologic Technologies, activated by thrombin) (protein)", "chain 1": "GVNLQEFLNVTSVHLFKERWDTNKVDHHTDKYENNKLIVRRGQSFYVQIDFSRPYDPRRDLFRVEYVIGRYPQENKGTYIPVPIVSELQSGKWGAKIVMREDRSVRLSIQSSPKCIVGKFRMYVAVWTPYGVLRTSRNPETDTYILFNPWCEDDAVYLDNEKEREEYVLNDIGVIFYGEVNDIKTRSWSYGQFEDGILDTCLYVMDRAQMDLSGRGNPIKVSRVGSAMVNAKDDEGVLVGSWDNIYAYGVPPSAWTGSVDILLEYRSSENPVRYGQCWVFAGVFNTFLRCLGIPARIVTNYFSAHDNDANLQMDIFLEEDGNVNSKLTKDSVWNYHCWNEAWMTRPDLPVGFGGWQAVDSTPQENSDGMYRCGPASVQAIKHGHVCFQFDAPFVFAEVNSDLIYITAKKDGTHVVENVDATHIGKLIVTKQIGGDGMMDITDTYKFQEGQEEERLALETALMYGAKKPLNTEGVMKSRSNVDMDFEVENAVLGKDFKLSITFRNNSHNRYTITAYLSANITFYTGVPKAEFKKETFDVTLEPLSFKKEAVLIQAGEYMGQLLEQASLHFFVTARINETRDVLAKQKSTVLTIPEIIIKVRGTQVVGSDMTVTVEFTNPLKETLRNVWVHLDGPGVTRPMKKMFREIRPNSTVQWEEVCRPWVSGHRKLIASMSSDSLRHVYGELDVQIQRRPSM", "chain 2": "EEKPCGFPHVENGRIAQYYYTFKSFYFPMSIDKKLSFFCLAGYTTESGRQEEQTTCTTEGWSPEPRCFKKCTKPDLSNGYISDVKLLYKIQENMRYGCASGYKTTGGKDEEVVQCLSDGWSSQPTCRKEHETCLAPELYNGNYSTTQKTFKVKDKVQYECATGYYTAGGKKTEEVECLTYGWSLTPKCTKLKCSSLRLIENGYFHPVKQTYEEGDVVQFFCHENYYLSGSDLIQCYNFGWYPESPVCEGRRNRCPPPPLPINSKIQTHSTTYRHGEIVHIECELNFEIHGSAEIRCEDGKWTEPPKCIEGQEKVACEEPPFIENGAANLHSKIYYNGDKVTYACKSGYLLHGSNEITCNRGKWTLPPECVENNENCKHPPVVMNGAVADGILASYATGSSVEYRCNEYYLLRGSKISRCEQGKWSSPPVCLEPCTVNVDYMNRNNIEMKWKYEGKVLHGDLIDFVCKQGYDLSPLTPLSELSVQCNRGEVKYPLCTRKESKGMCTSPPLIKHGVIISSTVDTYENGSSVEYRCFDHHFLEGSREAYCLDGMWTTPPLCLEPCTLSFTEMEKNNLLLKWDFDNRPHILHGEYIEFICRGDTYPAELYITGSILRMQCDRGQLKYPRCIPRQSTLSYQEPLRT"}},
  "key": {"[1]": {"target": "T1, recombinant fibronectin-binding protein A (rFnbA) comprising residues Ala1 through Pro839 from S. aureus strain ATCC49525, wild type", "T1 chain": "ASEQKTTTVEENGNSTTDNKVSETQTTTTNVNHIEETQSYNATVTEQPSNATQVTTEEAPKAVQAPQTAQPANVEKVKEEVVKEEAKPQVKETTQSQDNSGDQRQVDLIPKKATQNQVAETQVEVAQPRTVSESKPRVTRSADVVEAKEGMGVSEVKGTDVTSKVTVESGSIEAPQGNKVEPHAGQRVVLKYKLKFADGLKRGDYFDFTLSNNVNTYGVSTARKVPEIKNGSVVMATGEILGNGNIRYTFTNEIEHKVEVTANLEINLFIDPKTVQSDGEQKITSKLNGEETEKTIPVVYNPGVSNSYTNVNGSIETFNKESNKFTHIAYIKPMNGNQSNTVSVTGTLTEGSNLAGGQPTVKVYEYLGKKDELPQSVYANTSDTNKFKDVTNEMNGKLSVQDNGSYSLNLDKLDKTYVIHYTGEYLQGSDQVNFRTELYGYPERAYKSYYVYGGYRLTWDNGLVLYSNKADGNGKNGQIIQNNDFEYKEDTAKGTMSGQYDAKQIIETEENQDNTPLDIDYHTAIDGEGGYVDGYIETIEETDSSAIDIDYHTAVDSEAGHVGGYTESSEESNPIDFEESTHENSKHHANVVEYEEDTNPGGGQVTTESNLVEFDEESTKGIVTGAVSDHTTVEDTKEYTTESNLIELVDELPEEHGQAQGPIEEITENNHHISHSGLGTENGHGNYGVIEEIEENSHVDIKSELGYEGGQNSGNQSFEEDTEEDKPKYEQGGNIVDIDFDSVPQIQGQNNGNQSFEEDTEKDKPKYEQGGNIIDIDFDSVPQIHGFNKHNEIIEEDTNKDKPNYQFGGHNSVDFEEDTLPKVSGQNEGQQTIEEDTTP"}, "[2]": {"target": "T2, 1Q FnbA mutant (recombinant Gln103Ala FnbA mutant, residues Ala1-Pro839)", "T2 chain": "T1 chain with Q103A"}, "[3]": {"target": "T3, 4Q4K FnbA mutant (recombinant Gln103Ala, Gln105Ala, Gln783Ala, Gln830Ala, Lys157Ala, Lys503Ala, Lys620Ala, and Lys762Ala mutant, residues Ala1-Pro839)", "T3 chain": "T1 chain with Q103A, Q105A, K157A, K503A, K620A, K762A, Q783A, Q830A"}},
  "note": "Where a chain is given by its changes, count along the chain named.",
  "data": [
    {"protein": "B1", "values": [
      {"measurement": "Factor XIIIa-catalyzed incorporation of dansylcadaverine (fluorescence of the FnbA band on SDS-PAGE)", "setting": "[1]", "value": "the band corresponding to the wild-type FnbA undergoes a continual increase of fluorescence reflecting the enzymatic attachment of increasing molecules of the probe"},
      {"measurement": "Factor XIIIa-catalyzed incorporation of dansylcadaverine (fluorescence of the FnbA band on SDS-PAGE)", "setting": "[2]", "value": "incorporation of dansylcadaverine into the 1Q FnbA mutant was drastically reduced"},
      {"measurement": "Factor XIIIa-catalyzed incorporation of dansylcadaverine (fluorescence of the FnbA band on SDS-PAGE)", "setting": "[3]", "value": "Further reduction in fluorescence intensity was observed with the 4Q4K rFnbA mutant"}
    ]}
  ]
}
